From the supplement of paper PMC7125110
± gives the standard error. Variants at the floor of the assay were thinned out.

B1: glmS ribozyme (parent)
chain: AUAAAAGCGCCAGAACUACAGAAAUGUAGUUGACGAGGAGGAGGUUUAUCGAAUUUUCGGCGGAUGCCUCCAAA

Experiments:
Details in all cases: with glucosamine-6-phosphate
[1] = variants of: B1; assay: self-cleavage kobs at 40 uM GlcN6P; higher = faster cleavage; RNA array
Summary of the method: (§1)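 Glucosamine-6-phosphate, from 40 μM to 10 mM in HEPES/KCl/Mg(OAc)2 buffer, was flowed over sequenced MiSeq chips carrying barcoded ribozyme variants transcribed in situ by E. coli RNA polymerase. A hybridised Cy3 probe tracked the variants at 37 °C as tiles were imaged over ~14 h. kobs, kcat and KM were obtained by fitting normalised per-tile medians to exponential decays and then applying weighted Michaelis–Menten fits across concentrations.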

[2] = variants of: B1; assay: self-cleavage kobs at 160 uM GlcN6P; higher = faster cleavage; RNA array
Summary of the method: as §1

[3] = variants of: B1; assay: self-cleavage kobs at 640 uM GlcN6P; higher = faster cleavage; RNA array
Summary of the method: as §1

[4] = variants of: B1; assay: self-cleavage kobs at 2500 uM GlcN6P; higher = faster cleavage; RNA array
Summary of the method: as §1

[5] = variants of: B1; assay: self-cleavage kobs at 10000 uM GlcN6P; higher = faster cleavage; RNA array
Summary of the method: as §1

Variant	self-cleavage kobs at 40 uM GlcN6P [1]	self-cleavage kobs at 160 uM GlcN6P [2]	self-cleavage kobs at 640 uM GlcN6P [3]	self-cleavage kobs at 2500 uM GlcN6P [4]	self-cleavage kobs at 10000 uM GlcN6P [5]
U47C C61U G63U	< 1e-05 s⁻¹	–	–	–	–
U55A C71G	8.5e-05 ± 2.2e-05 s⁻¹	0.000248 ± 9.2e-05 s⁻¹	0.00136 ± 0.00036 s⁻¹	0.000736 ± 0.00023 s⁻¹	0.00278 ± 0.0012 s⁻¹
C10G G37U G40C G41U C50G	< 1e-05 s⁻¹	–	–	–	–
C50G A53U G66A C67A	0.000122 ± 4.6e-05 s⁻¹	–	–	–	0.000135 ± 5.1e-05 s⁻¹
U30G C61A	< 1e-05 s⁻¹	–	–	–	< 1e-05 s⁻¹
A33G A36U	< 1e-05 s⁻¹	< 1e-05 s⁻¹	–	< 1e-05 s⁻¹	< 1e-05 s⁻¹
C11U A33G	< 1e-05 s⁻¹	< 1e-05 s⁻¹	–	< 1e-05 s⁻¹	< 1e-05 s⁻¹
C8A G37C U69G C71G	0.000455 ± 0.00017 s⁻¹	–	–	–	–
G37U A39G G62A C68A	< 1e-05 s⁻¹	–	–	–	< 1e-05 s⁻¹
A6C G32C G60U	< 1e-05 s⁻¹	–	–	–	< 1e-05 s⁻¹
U45C G59U	< 1e-05 s⁻¹	< 1e-05 s⁻¹	< 1e-05 s⁻¹	–	< 1e-05 s⁻¹
G29U A52C G66A	< 1e-05 s⁻¹	–	–	–	–
C10U C34A	< 1e-05 s⁻¹	< 1e-05 s⁻¹	< 1e-05 s⁻¹	–	< 1e-05 s⁻¹
U31G C61U	< 1e-05 s⁻¹	< 1e-05 s⁻¹	< 1e-05 s⁻¹	< 1e-05 s⁻¹	–
U31A A52G C67G	6.56e-05 ± 1.9e-05 s⁻¹	–	–	–	9.04e-05 ± 1.2e-05 s⁻¹
A12U G51C	< 1e-05 s⁻¹	< 1e-05 s⁻¹	< 1e-05 s⁻¹	< 1e-05 s⁻¹	–
G37U G66A	< 1e-05 s⁻¹	–	< 1e-05 s⁻¹	–	–
C11U G37A G66U	< 1e-05 s⁻¹	–	–	–	–
U46C A53C U55A U56G G62C	< 1e-05 s⁻¹	–	–	–	–
A15G U55G G63A	< 1e-05 s⁻¹	–	–	–	< 1e-05 s⁻¹
C8A A53U	< 1e-05 s⁻¹	< 1e-05 s⁻¹	< 1e-05 s⁻¹	< 1e-05 s⁻¹	< 1e-05 s⁻¹
A36G G43A U54G	< 1e-05 s⁻¹	–	< 1e-05 s⁻¹	< 1e-05 s⁻¹	< 1e-05 s⁻¹
G41A C67U U69A	< 1e-05 s⁻¹	–	–	–	–
A53U U56A C70U	0.000179 ± 3.4e-05 s⁻¹	–	–	–	0.00382 ± 0.0011 s⁻¹
G35C U45G	< 1e-05 s⁻¹	< 1e-05 s⁻¹	–	< 1e-05 s⁻¹	< 1e-05 s⁻¹

Variant	self-cleavage kobs at 40 uM GlcN6P [1]	self-cleavage kobs at 160 uM GlcN6P [2]	self-cleavage kobs at 640 uM GlcN6P [3]	self-cleavage kobs at 2500 uM GlcN6P [4]	self-cleavage kobs at 10000 uM GlcN6P [5]
A33G G62C	< 1e-05 s⁻¹	–	< 1e-05 s⁻¹	< 1e-05 s⁻¹	< 1e-05 s⁻¹
G38C U56G	< 1e-05 s⁻¹	< 1e-05 s⁻¹	< 1e-05 s⁻¹	< 1e-05 s⁻¹	–
G43A G51C G63A C68U	< 1e-05 s⁻¹	–	–	–	–
C34A U65G	< 1e-05 s⁻¹	< 1e-05 s⁻¹	< 1e-05 s⁻¹	< 1e-05 s⁻¹	< 1e-05 s⁻¹
A12U G29U A33U A42U U49A	< 1e-05 s⁻¹	–	–	–	–
A15G G29A U55G	5.71e-05 ± 1.7e-05 s⁻¹	–	–	–	0.00317 ± 0.00043 s⁻¹
A6C A15U G40A	< 1e-05 s⁻¹	–	–	< 1e-05 s⁻¹	< 1e-05 s⁻¹
U30G C50G	0.000146 ± 6.1e-05 s⁻¹	7.58e-05 ± 2.1e-05 s⁻¹	7e-05 ± 2.2e-05 s⁻¹	0.000109 ± 2.3e-05 s⁻¹	–
A33G A39G G60U	< 1e-05 s⁻¹	–	–	< 1e-05 s⁻¹	< 1e-05 s⁻¹
G29C G41U A48G U49C G60C	< 1e-05 s⁻¹	–	–	–	< 1e-05 s⁻¹
A36U U47G A53G C68G	7.44e-05 ± 2.6e-05 s⁻¹	–	–	–	0.000107 ± 3.7e-05 s⁻¹
G9C U30A U46C U56A	< 1e-05 s⁻¹	–	–	–	< 1e-05 s⁻¹
G40A A53C G62U	< 1e-05 s⁻¹	–	–	–	< 1e-05 s⁻¹
G7U A52G C71U	< 1e-05 s⁻¹	–	–	–	–
G32U A48U	< 1e-05 s⁻¹	< 1e-05 s⁻¹	< 1e-05 s⁻¹	–	–
A52G U57G	5.61e-05 ± 1.6e-05 s⁻¹	0.000188 ± 6.1e-05 s⁻¹	0.000523 ± 0.00014 s⁻¹	0.00103 ± 0.00019 s⁻¹	0.00397 ± 0.00056 s⁻¹
C58A C61U G66U	< 1e-05 s⁻¹	–	–	–	–
G62U U65G	< 1e-05 s⁻¹	< 1e-05 s⁻¹	< 1e-05 s⁻¹	< 1e-05 s⁻¹	< 1e-05 s⁻¹
U54G G63C	< 1e-05 s⁻¹	–	< 1e-05 s⁻¹	< 1e-05 s⁻¹	< 1e-05 s⁻¹
U31C G41U U45G C70G	3.43e-05 ± 1.6e-05 s⁻¹	–	–	–	0.000585 ± 0.00013 s⁻¹
G43A A64U	< 1e-05 s⁻¹	< 1e-05 s⁻¹	< 1e-05 s⁻¹	< 1e-05 s⁻¹	< 1e-05 s⁻¹
C10U A12C A53C	< 1e-05 s⁻¹	–	–	–	–
G7U G41U	< 1e-05 s⁻¹	< 1e-05 s⁻¹	< 1e-05 s⁻¹	< 1e-05 s⁻¹	< 1e-05 s⁻¹
G13C G51C	< 1e-05 s⁻¹	–	< 1e-05 s⁻¹	< 1e-05 s⁻¹	< 1e-05 s⁻¹
A14U G32C U45A U47G	< 1e-05 s⁻¹	–	–	–	3.36e-05 ± 1.4e-05 s⁻¹

Variant	self-cleavage kobs at 40 uM GlcN6P [1]	self-cleavage kobs at 160 uM GlcN6P [2]	self-cleavage kobs at 640 uM GlcN6P [3]	self-cleavage kobs at 2500 uM GlcN6P [4]	self-cleavage kobs at 10000 uM GlcN6P [5]
G9C G41U C50A	< 1e-05 s⁻¹	–	–	–	–
A14C U46A G59A C68G	< 1e-05 s⁻¹	–	–	–	–
A12U A15G	0.00156 ± 0.00021 s⁻¹	0.00363 ± 0.00072 s⁻¹	0.0146 ± 0.0029 s⁻¹	0.0139 ± 0.0034 s⁻¹	0.0602 ± 0.02 s⁻¹
G51U C58A G60U	< 1e-05 s⁻¹	–	–	–	< 1e-05 s⁻¹
G35U A48C G60C	< 1e-05 s⁻¹	–	–	< 1e-05 s⁻¹	< 1e-05 s⁻¹
C10U G63U A64U	< 1e-05 s⁻¹	–	–	–	–
C16U A33U G51C	< 1e-05 s⁻¹	–	–	–	–
A6C A14C U31G A48G G51U C58U C61A	8.19e-05 ± 3.4e-05 s⁻¹	–	–	–	–
G7U C11A C61G	< 1e-05 s⁻¹	–	–	–	–
G40U G41U U46A U47C G51U	< 1e-05 s⁻¹	–	–	–	–
A14C C50G A64G	4.29e-05 ± 2.1e-05 s⁻¹	–	–	–	–
G38U G51U U54G G66A	< 1e-05 s⁻¹	–	–	–	–
C10U A64U	< 1e-05 s⁻¹	< 1e-05 s⁻¹	< 1e-05 s⁻¹	< 1e-05 s⁻¹	< 1e-05 s⁻¹
A15C G41U C70A	0.000696 ± 0.00013 s⁻¹	–	–	–	–
G7A G13U U55C	< 1e-05 s⁻¹	–	–	–	< 1e-05 s⁻¹
A6G C8A G32C	< 1e-05 s⁻¹	–	–	< 1e-05 s⁻¹	–
G63A A64U	< 1e-05 s⁻¹	–	< 1e-05 s⁻¹	< 1e-05 s⁻¹	< 1e-05 s⁻¹
C50G G63A	5.7e-05 ± 1.5e-05 s⁻¹	0.000484 ± 0.00023 s⁻¹	4e-05 ± 1.7e-05 s⁻¹	3.78e-05 ± 1.6e-05 s⁻¹	–
A6G U57C	< 1e-05 s⁻¹	< 1e-05 s⁻¹	< 1e-05 s⁻¹	< 1e-05 s⁻¹	–
G43U G51A	< 1e-05 s⁻¹	–	< 1e-05 s⁻¹	–	–
G40U A42G G51C A52G C70G	< 1e-05 s⁻¹	–	–	< 1e-05 s⁻¹	< 1e-05 s⁻¹
C10G G59C	< 1e-05 s⁻¹	–	< 1e-05 s⁻¹	–	–
A6G G29U G35A C50G G51U G66U C71U	< 1e-05 s⁻¹	–	–	–	–
A36G G60U	< 1e-05 s⁻¹	< 1e-05 s⁻¹	< 1e-05 s⁻¹	< 1e-05 s⁻¹	< 1e-05 s⁻¹
G21U U30C U57C G66C C67U	< 1e-05 s⁻¹	–	–	–	–

Variant	self-cleavage kobs at 40 uM GlcN6P [1]	self-cleavage kobs at 160 uM GlcN6P [2]	self-cleavage kobs at 640 uM GlcN6P [3]	self-cleavage kobs at 2500 uM GlcN6P [4]	self-cleavage kobs at 10000 uM GlcN6P [5]
C8G U56C G62C	< 1e-05 s⁻¹	–	< 1e-05 s⁻¹	< 1e-05 s⁻¹	< 1e-05 s⁻¹
U56C G59C	< 1e-05 s⁻¹	–	–	–	< 1e-05 s⁻¹
C8G U65A	< 1e-05 s⁻¹	–	–	–	–
G7A G40A A52C	< 1e-05 s⁻¹	–	< 1e-05 s⁻¹	–	< 1e-05 s⁻¹
G9C C10U G37U	< 1e-05 s⁻¹	–	< 1e-05 s⁻¹	–	–
G41C U57A	< 1e-05 s⁻¹	< 1e-05 s⁻¹	–	< 1e-05 s⁻¹	< 1e-05 s⁻¹
U54A G62U	< 1e-05 s⁻¹	–	–	< 1e-05 s⁻¹	< 1e-05 s⁻¹
U31C G43U G66A	< 1e-05 s⁻¹	–	–	–	–
G9C A39G	< 1e-05 s⁻¹	–	–	< 1e-05 s⁻¹	< 1e-05 s⁻¹
A6U A12C U56A G62A	< 1e-05 s⁻¹	–	–	–	–
A6C A33U	< 1e-05 s⁻¹	–	< 1e-05 s⁻¹	< 1e-05 s⁻¹	< 1e-05 s⁻¹
C8A G32A G37A	< 1e-05 s⁻¹	–	–	–	–
G51A U55G	< 1e-05 s⁻¹	< 1e-05 s⁻¹	< 1e-05 s⁻¹	–	–
A6C G32A C34U U54G C58U G66A	< 1e-05 s⁻¹	–	–	–	< 1e-05 s⁻¹
U45A U69C	0.000354 ± 5.9e-05 s⁻¹	0.000781 ± 0.00033 s⁻¹	0.000518 ± 0.00013 s⁻¹	0.00166 ± 0.0005 s⁻¹	0.00144 ± 0.00031 s⁻¹
G7A G40C	< 1e-05 s⁻¹	< 1e-05 s⁻¹	< 1e-05 s⁻¹	< 1e-05 s⁻¹	–
A39G G51C G62C	< 1e-05 s⁻¹	–	–	–	< 1e-05 s⁻¹
G9C A15U	< 1e-05 s⁻¹	< 1e-05 s⁻¹	< 1e-05 s⁻¹	< 1e-05 s⁻¹	< 1e-05 s⁻¹
U30A A39U G62U	< 1e-05 s⁻¹	–	–	–	–
C34U C68G	0.000563 ± 0.00025 s⁻¹	–	0.00228 ± 0.0011 s⁻¹	–	0.000463 ± 0.00015 s⁻¹
G37U G43C U65C	< 1e-05 s⁻¹	–	< 1e-05 s⁻¹	–	< 1e-05 s⁻¹
U45G C50A U65G	< 1e-05 s⁻¹	–	< 1e-05 s⁻¹	–	–
C10G U45G	< 1e-05 s⁻¹	< 1e-05 s⁻¹	< 1e-05 s⁻¹	< 1e-05 s⁻¹	< 1e-05 s⁻¹
